{"source": "patent US20240279345A1", "about": "“ALPHA 5 BETA 1 INTEGRIN BINDING AGENTS AND USES THEREOF” (PASITHEA THERAPEUTICS CORP., priority 2021, published 2024)", "key": {"[1]": {"target": "purified recombinant human α5β1 integrin heterodimer, 6×His tagged (rh-α5β1; Acro Biosystems, cat. no. IT1-H52W5) (human) (UniProt P08648)", "test": "ELISA, inhibition of rh-α5β1-His binding to coated FN, isotype control (data normalised to it)"}, "[2]": {"target": "purified recombinant human α5β1 integrin heterodimer (rh-α5β1; Acro Biosystems, cat. no. IT1-H52W5) (human) (UniProt P08648)", "test": "Conformation assay ELISA: plate coated with 12G10, soluble 12G10 dilution series premixed with His-tagged rh-α5β1 and 0.5 mM MnCl2, captured α5β1 detected by anti-6xHis; competitor on the plate: 12G10 itself"}, "[3]": {"target": "T1, purified recombinant human α5β1 integrin heterodimer (rh-α5β1; Acro Biosystems, cat. no. IT1-H52W5) (human, UniProt P08648 42-995; P05556 21-728)", "T1 construct": "Bought protein; 6×His tagged; also called rh-α5β1-6×His tagged protein; His-tagged-α5β1", "test": "Conformation assay ELISA: plate coated with 12G10, antibody dilution series premixed with His-tagged rh-α5β1 and 0.5 mM MnCl2, captured α5β1 detected by anti-6xHis; competitor on the plate: 12G10", "description": "Plates were then washed 3 times with Wash Buffer (1× Tris Buffered Saline containing 0.05% Tween20), then blocked with 2% BSA in 1×TBS for 2 hours at room temperature (RT). […] After 1 hour at RT, the wells were washed 3 times, incubated with biotinylated Anti-6×His-Tag Ab (Invitrogen, Carlsbad, CA, cat. no. MAI-21315-BTIN) at 1:1000 in Standard Diluent for 1 hour, washed 3 times, incubated for 30 minutes with poly-HRP Streptavidin (Thermo Fisher Scientific, Waltham, MA, cat. no. N200), washed 3 times, incubated with TMB substrate (Thermo Fisher Scientific, Waltham, MA, cat. no. N301) for 2-5 minutes, followed by addition of ELISA Stop Solution (Invitrogen, Carlsbad, CA, cat. no. SS04). Absorbance 450 nm was measured."}, "[4]": {"target": "T1, purified recombinant human α5β1 …", "test": "FN-blocking ELISA", "description": "Following 1 hour at RT, the wells were washed 3 times, incubated with biotinylated Anti-6×His-Tag Ab (Invitrogen, Carlsbad, CA, cat. no. MAI-21315-BTIN) at 1:1000 in Standard Diluent for 1 hour, washed 3 times, incubated for 30 minutes with poly-HRP Streptavidin (Thermo Fisher Scientific, Waltham, MA, cat. no. N200), washed 4 times, incubated with TMB substrate (Thermo Fisher Scientific, Waltham, MA, cat. no. N301) for 2-5 minutes, followed by addition of ELISA Stop Solution (Invitrogen, Carlsbad, CA, cat. no. SS04). Absorbance 450 nm was measured. Data points were normalized to the isotype Control Ab values at each concentration and reported as % Absorbance 450 nm normalized to Control Ab. Non-linear regression analysis was used to fit curves (4-parameter) to the data using GraphPad Prism version 9.0.2 (GraphPad Software, LLC, San Diego, CA)."}, "[5]": {"target": "T2, rh-α5β1 in active conformation (binding to 12G10) (Homo sapiens, UniProt P05556+P08648)", "T2 construct": "purchased Acro Biosystems IT1-H52W5", "test": "12G10 conformation assay (α5β1 integrin binding to 12G10)", "conditions": "human IgG4 chimeric antibodies; 0.5 mM MnCl2", "description": "A Nunc MaxiSorp Flat-Bottom 96-well plate (Invitrogen, Waltham, MA, cat. no. 44-2404-21) was coated with 12G10 antibody at 2 μg/mL in 0.2M carbonate-bicarbonate buffer, pH9.4 (Thermo Scientific, Rockford, IL, cat. No. 28382) by incubation overnight at 4° C. Plates were then washed 3 times with Wash Buffer (1× Tris Buffered Saline containing 0.05% Tween20), then blocked with 2% BSA in 1×TBS for 2 hours at room temperature (RT). The human IgG4 chimeric versions of the antibodies were diluted in Standard Diluent (2% BSA, 1×TBS, 0.05% Tween20) containing 0.05 μg/mL rh-α5β1-6×His tagged protein (Acro Biosystems, Newark, DE, cat. no. IT1-H52W5) and 0.5 mM MnCl2 (TEKnova, Hollister, CA, cat. no. M0350) to generate a 7 point 1:5 antibody dilution series ranging from 10,000 ng/mL to 0.64 ng/mL. In addition to human IgG4 chimeric antibodies A-15B08, C-14D12 and A2-7A05, three other antibodies tested included IgG4 isotype control (human IgG4, Kappa, anti-fluorescein Ab00102-13.0, Absolute Antibody, Wilton, UK), anti-integrin alpha-5 clone SNAKA51 (MilliporeSigma, St. Louis, MO, cat. no. MABT201) known to induce integrin alpha-5 into an active conformation, and finally the 12G10 antibody itself which can directly compete with the 12G10 bound to the MaxiSorp plate. For the assays, 100 μL of the antibody dilution series, His-tagged-α5β1 mixture was added to the wells after the blocking solution was removed and wells were washed 3 times. […] Absorbance 450 nm was measured. Data points were normalized to the absorbance of the well containing no antibody for each dilution series and reported as Percent Binding. […]"}, "[6]": {"target": "rh-α5β1 (Homo sapiens, UniProt P05556+P08648)", "test": "Competition binding studies by Biolayer Interferometry (epitope groups)", "conditions": "for Response (nm) / % Response: secondary mAb pre-mixed with 20 nM rh-α5β1; for % Response: relative to antigen alone", "description": "Epitope analysis via competition binding studies was performed using Biolayer Interferometry (BLI) on the 6 antibodies selected as described in Example 5. The anti-α5β1 FN blocking antibodies A2-7A05, C-14D12 and A-15B08 were immobilized on sensors and incubated with each of the other antibodies that had been preincubated with rh-α5β1, to determine whether this antibody-antigen association prevents or allows binding to the antibody on the sensor. The magnitude of observed binding (response) was compared to binding of antigen alone under the same conditions. If the overall response was greater than 120% of antigen binding alone, then the antibodies can pair with each other. If response was less than 80% of response of antigen binding alone, then the antibodies block each other. The protocol was as follows: preincubate the panel of antibodies with antigen (1 hr). Equilibrate the sensor (30 seconds (s))-->Load lead Ab on the sensor (700s)--->Quench (480s)--->Read baseline (480s)-->measure preincubated Ab+Ag association with loaded sensor (600s)."}, "[7]": {"target": "T3, binding of α5β1 integrin to fibronectin (FN) (Homo sapiens, UniProt P05556+P08648)", "T3 construct": "purchased Acro Biosystems IT1-H52W5", "test": "Quantitative FN inhibition (FN-blocking) assay in ELISA format", "assay_type": "biochemical", "conditions": "by ELISA", "from_the_text": "To determine whether the 9 unique hybridoma clones selected as described in Example 4 were able to inhibit the binding of α5β1 integrin to fibronectin (FN), the antibodies were first purified from hybridoma supernatants by Protein A chromatography, protein concentrations measured by BCA assay (Pierce™ BCA Protein Assay Kit; Thermo Fisher Scientific, Waltham, MA, cat. no. 23225) and then tested in a quantitative FN inhibition assay in an ELISA format.\nImmulon4 HBX ELISA 96-well plates were coated with FN by incubation overnight at 4° C. with 2.5 μg/mL human FN (R&D Systems, Minneapolis, MN 55413, cat. no. 1918-FN) in 1×PBS (0.01M phosphate buffer and 0.154M NaCl, pH 7.4). Plates were then washed 3 times with Wash Buffer (1× Tris Buffered Saline containing 0.05% Tween20), blocked with 2% BSA in 1×TBS for 2 hours at room temperature (RT). Antibodies were diluted in Standard Diluent (2% BSA, 1×TBS, 0.05% Tween20) containing 0.1 μg/mL rh-α5β1-6×His tagged protein (Acro Biosystems, Newark, DE, cat. no. IT1-H52W5), to generate an 11 point 1:3 antibody dilution series ranging from 10,000 ng/mL to 0.17 ng/mL. Isotype control antibody (Control Ab; Ms IgG2a EMD Millipore Corp, Billerica, MA, cat. no. PP102) was used to normalize data across different assay runs. For the assays, 100 uL of the antibody dilution series/His-tagged-α5β1 mixture was added to the wells after the blocking solution was removed and wells were washed 3 times. Following 1 hour at RT, the wells were washed 3 times, incubated with biotinylated Anti-6×His-Tag Ab (Invitrogen, Carlsbad, CA, cat. no. MAI-21315-BTIN) at 1:1000 in Standard Diluent for 1 hour, washed 3 times, incubated for 30 minutes with poly-HRP Streptavidin (Thermo Fisher Scientific, Waltham, MA, cat. no. N200), washed 4 times, incubated with TMB substrate (Thermo Fisher Scientific, Waltham, MA, cat. no. N301) for 2-5 minutes, followed by addition of ELISA Stop Solution (Invitrogen, Carlsbad, CA, cat. no. SS04). Absorbance 450 nm was measured. Data points were normalized to the isotype Control Ab values at each concentration and reported as % Absorbance 450 nm normalized to Control Ab. Non-linear regression analysis was used to fit curves (4-parameter) to the data using GraphPad Prism version 9.0.2 (GraphPad Software, LLC, San Diego, CA).\nFreeze-thaw stability was tested on a small aliquot of each chimera antibody by overnight storage at −80° C. followed by thaw on ice, repeated three times. […] IC50s were calculated by non-linear regression analysis curve-fitting (4-parameter) of the ELISA data (FIG. 5) using GraphPad Prism version 9.0.2 (GraphPad Software, LLC, San Diego, CA). […]"}}, "data": [{"molecule": "Isotype control antibody (Ms IgG2a, EMD Millipore, cat. no. PP102)", "values": [{"measurement": "% Max Inhibition", "setting": "[1]", "result": 0, "unit": "%"}]}, {"molecule": "12G10 (mouse anti-human integrin beta1/CD29 antibody, Novus Biologicals, cat. no. NB100-63255)", "values": [{"measurement": "IC50 (read off the curve)", "setting": "[2]", "result": 0.08, "unit": "µg/mL"}]}, {"molecule": "A-15B08 IgG4 Chimera (antibody, V domains shown, heavy chain glycosylated at the NST site of CDRH2; also called A-15B08 (human IgG4 chimeric antibody)) VH: QVQLKESGPGLVAPSQSLSITCTISGFSLTSYGVHWVRQPPGKGLEWLVVIWSDGSTTYNSTLKSRLSISKDNSKSQVFFKMNSLQTDDTAMYYCARHYDYDGDWFAYWGQGTLVTVSA VL: QIVLTQSPAIMSASLGERVTMTCTASSRVSSNSLHWYQQKPGSSPKLWIYSTSNLASGVPARFSGSGSGTSYSLTISSMEAEDAATYYCHQYLRSPPTFGGGTKLEIK", "values": [{"measurement": "IC50 (read off the curve)", "setting": "[3]", "result": "~0.02", "unit": "µg/mL"}, {"measurement": "fold potency (IC50) against the mouse hybridoma antibody it was derived from", "setting": "[4]", "result": "~2", "unit": "fold"}]}, {"molecule": "C-14D12 IgG4 Chimera (antibody, V domains shown, also called C-14D12 (human IgG4 chimeric antibody)) VH: QVQLKESGPDLVAPSQSLSITCTVSGFSLTDYGVHWVRQPPGKGLEWLVVIWSDGSTTYNSALKSRLSITKDTSKRQVFLKMNSLQTDDTAMYYCARHAPSFIRYGSRYDALDYWGQGTSVTVSS VL: QIVLTQSPAIMSASLGERVTLTCTASSSVTSSFLHWYQQKPGSSPKLWIYSTSNLASGVPARFSGSGSGTSYSLTISSMEAEDAATYYCHQYHRSPPTFGGGTKLEIK", "values": [{"measurement": "IC50 (read off the curve)", "setting": "[3]", "result": "~0.02", "unit": "µg/mL"}, {"measurement": "fold potency (IC50) against the mouse hybridoma antibody it was derived from", "setting": "[4]", "result": "~2", "unit": "fold"}]}, {"molecule": "C-14D12: anti-α5β1 antibody, VH SEQ ID NO:109, VL SEQ ID NO:110; tested as mouse hybridoma antibody and as human IgG4 chimera (antibody, V domains shown, C-14D12 VH Sequence; C-14D12 VL Sequence, tested as mouse hybridoma antibody and as human IgG4 chimera) VH: QVQLKESGPDLVAPSQSLSITCTVSGFSLTDYGVHWVRQPPGKGLEWLVVIWSDGSTTYNSALKSRLSITKDTSKRQVFLKMNSLQTDDTAMYYCARHAPSFIRYGSRYDALDYWGQGTSVTVSS VL: QIVLTQSPAIMSASLGERVTLTCTASSSVTSSFLHWYQQKPGSSPKLWIYSTSNLASGVPARFSGSGSGTSYSLTISSMEAEDAATYYCHQYHRSPPTFGGGTKLEIK", "values": [{"measurement": "reduction of α5β1 integrin binding to 12G10", "setting": "[5]", "result": "approximately 50%"}, {"measurement": "binding of rh-α5β1 complexed with antibody to A2-7A05 on the sensor", "setting": "[6]; antibody preincubated with rh-α5β1, A2-7A05 immobilized on sensor", "result": "able to bind"}, {"measurement": "binding of rh-α5β1 complexed with antibody to A-15B08 on the sensor", "setting": "[6]; antibody preincubated with rh-α5β1, A-15B08 immobilized on sensor", "result": "not able to bind"}, {"measurement": "Response (nm)", "setting": "[6]; immobilized mAb A2-7A05", "result": 0.11, "unit": "nm"}, {"measurement": "% Response", "setting": "[6]; immobilized mAb A2-7A05", "result": 309.19, "unit": "%"}, {"measurement": "Response (nm)", "setting": "[6]; immobilized mAb A-15B08", "result": "−0.15", "unit": "nm"}, {"measurement": "% Response", "setting": "[6]; immobilized mAb A-15B08", "result": "−72.85", "unit": "%"}, {"measurement": "Response (nm)", "setting": "[6]; immobilized mAb C-14D12", "result": "−0.11", "unit": "nm"}, {"measurement": "% Response", "setting": "[6]; immobilized mAb C-14D12", "result": "−50.49", "unit": "%"}, {"measurement": "epitope group", "setting": "[6]; two epitope groups among 6 antibodies", "result": "second group"}, {"measurement": "class of FN binding blocker", "setting": "[7]", "result": "strong blockers of FN binding"}]}]}
